Columns and labels:
[1] = test system: SpCas9 delta-Helical-III deletion F498-Q712 replaced by GGS linker (Streptococcus pyogenes); assay: cleavage_in_vitro; conditions: Helical-III in trans rescues ~100-fold; 5 mM MgCl2
[2] = test system: Helical-III domain of SpCas9, supplied in trans

## lambda1-targeting sgRNA ; lambda1 on-target DNA
[1]
  activity (fold decrease vs WT): 1000

## SpCas9ΔHelical-III (ΔF498-Q712 with GGS linker)
[2]
  cleavage with a PAM-distal mismatched target: had no effect on cleavage with a PAM-distal mismatched target
  on-target cleavage rate (radiolabeled DNA cleavage assay): rescued the on-target cleavage rate by ˜100-fold in a concentration-dependent manner

Source: US20200140835
